Measurements from patent US20210071139A1.

Key:
Assay in all cases: TOX IP-MS, EL4 nuclear extract, MiST
[1] = biological target: Cad (UniProt B2RQC6)
[2] = biological target: Hcfc1 (UniProt Q61191)
[3] = biological target: Rbm42 (UniProt Q91V81)
[4] = biological target: C1qc (UniProt Q02105)
[5] = biological target: Srrt (UniProt Q99MR6)
[6] = biological target: Ccar1 (UniProt Q8CH18)
[7] = biological target: Orc5 (UniProt Q9WUV0)
[8] = biological target: Meaf6 (UniProt Q2VPQ9)
[9] = biological target: Fubp1 (UniProt Q91WJ8)
[10] = biological target: Dmap1 (UniProt Q9JI44)
[11] = biological target: Ing4 (UniProt Q8C0D7)
[12] = biological target: Ppie (UniProt Q9QZH3)
[13] = biological target: Zfp219 (UniProt Q6IQX8)
[14] = biological target: Rrp8 (UniProt Q9DB85)
[15] = biological target: Zwilch (UniProt Q8R060)
[16] = biological target: Tox4; Tox3
[17] = biological target: Ppa1 (UniProt Q9D819)
[18] = biological target: Eif5 (UniProt P59325)
[19] = biological target: Myef2 (UniProt Q8C854)
[20] = biological target: Prrc2a (UniProt Q7TSC1)
[21] = biological target: Rpl36; Gm8973
[22] = biological target: Prrc2c (UniProt Q3TLH4)
[23] = biological target: Dlst (UniProt Q9D2G2)
[24] = biological target: Rbm34 (UniProt Q8C5L7)
[25] = biological target: Kntc1 (UniProt Q8C3Y4)
[26] = biological target: Cacybp (UniProt Q9CXW3)
[27] = biological target: Pusl1 (UniProt A2ADA5)
[28] = biological target: Jade2 (UniProt Q6ZQF7)

Chain of Kntc1 (Q8C3Y4 whole entry): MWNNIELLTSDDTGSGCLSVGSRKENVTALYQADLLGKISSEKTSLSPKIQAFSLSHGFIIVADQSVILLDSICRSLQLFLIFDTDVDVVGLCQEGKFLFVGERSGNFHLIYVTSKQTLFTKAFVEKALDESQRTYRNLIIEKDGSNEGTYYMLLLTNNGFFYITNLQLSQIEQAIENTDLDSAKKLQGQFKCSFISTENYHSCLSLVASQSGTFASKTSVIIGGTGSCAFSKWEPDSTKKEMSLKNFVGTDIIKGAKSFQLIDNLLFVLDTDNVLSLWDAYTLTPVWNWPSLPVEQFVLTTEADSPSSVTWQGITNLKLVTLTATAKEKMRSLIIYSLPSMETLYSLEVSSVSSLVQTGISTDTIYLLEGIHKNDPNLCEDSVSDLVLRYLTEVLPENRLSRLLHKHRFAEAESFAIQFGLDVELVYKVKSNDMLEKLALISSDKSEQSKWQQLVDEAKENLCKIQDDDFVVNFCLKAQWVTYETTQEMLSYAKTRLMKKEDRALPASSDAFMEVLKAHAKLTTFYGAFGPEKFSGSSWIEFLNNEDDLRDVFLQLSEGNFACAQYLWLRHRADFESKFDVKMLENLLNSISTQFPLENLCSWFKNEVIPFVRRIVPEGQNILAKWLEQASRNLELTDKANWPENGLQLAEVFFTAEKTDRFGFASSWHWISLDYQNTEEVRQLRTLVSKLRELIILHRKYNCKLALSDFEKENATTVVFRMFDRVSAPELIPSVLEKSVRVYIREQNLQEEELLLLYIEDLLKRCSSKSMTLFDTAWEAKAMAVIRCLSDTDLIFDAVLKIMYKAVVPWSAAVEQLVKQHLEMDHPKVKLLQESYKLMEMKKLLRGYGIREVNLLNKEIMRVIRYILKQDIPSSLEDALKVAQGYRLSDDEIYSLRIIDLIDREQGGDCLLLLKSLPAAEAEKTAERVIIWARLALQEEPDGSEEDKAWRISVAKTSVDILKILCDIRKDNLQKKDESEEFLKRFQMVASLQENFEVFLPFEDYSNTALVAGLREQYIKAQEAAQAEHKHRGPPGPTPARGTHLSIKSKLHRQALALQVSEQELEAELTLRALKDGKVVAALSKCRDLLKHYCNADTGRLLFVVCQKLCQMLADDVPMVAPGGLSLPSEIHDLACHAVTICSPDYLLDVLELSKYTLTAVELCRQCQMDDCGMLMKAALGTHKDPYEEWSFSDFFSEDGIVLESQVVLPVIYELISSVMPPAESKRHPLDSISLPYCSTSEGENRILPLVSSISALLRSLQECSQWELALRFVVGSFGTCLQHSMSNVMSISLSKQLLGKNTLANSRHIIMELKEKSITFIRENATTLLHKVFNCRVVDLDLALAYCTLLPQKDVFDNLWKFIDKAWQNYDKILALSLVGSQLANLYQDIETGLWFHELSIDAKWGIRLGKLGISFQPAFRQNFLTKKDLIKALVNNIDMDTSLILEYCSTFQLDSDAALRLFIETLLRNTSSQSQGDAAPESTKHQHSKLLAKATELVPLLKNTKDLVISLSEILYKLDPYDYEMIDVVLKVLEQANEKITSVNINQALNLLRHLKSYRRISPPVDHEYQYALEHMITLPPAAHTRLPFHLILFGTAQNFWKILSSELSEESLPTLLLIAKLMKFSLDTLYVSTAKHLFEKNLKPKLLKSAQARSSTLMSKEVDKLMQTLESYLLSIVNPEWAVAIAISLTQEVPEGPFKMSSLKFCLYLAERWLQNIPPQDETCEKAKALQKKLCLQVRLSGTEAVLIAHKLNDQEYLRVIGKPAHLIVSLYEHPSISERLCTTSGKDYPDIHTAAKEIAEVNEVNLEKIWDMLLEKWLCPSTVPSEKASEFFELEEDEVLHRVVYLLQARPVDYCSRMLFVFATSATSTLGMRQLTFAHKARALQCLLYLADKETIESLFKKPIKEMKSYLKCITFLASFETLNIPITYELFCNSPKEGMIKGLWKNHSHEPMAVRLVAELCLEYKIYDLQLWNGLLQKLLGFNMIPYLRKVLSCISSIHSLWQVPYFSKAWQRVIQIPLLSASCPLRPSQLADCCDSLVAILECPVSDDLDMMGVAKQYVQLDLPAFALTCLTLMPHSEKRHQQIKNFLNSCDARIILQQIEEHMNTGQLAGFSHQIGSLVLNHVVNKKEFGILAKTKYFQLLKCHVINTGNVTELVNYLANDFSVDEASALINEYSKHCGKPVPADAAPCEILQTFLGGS
Chain of Rbm34 (Q8C5L7 whole entry): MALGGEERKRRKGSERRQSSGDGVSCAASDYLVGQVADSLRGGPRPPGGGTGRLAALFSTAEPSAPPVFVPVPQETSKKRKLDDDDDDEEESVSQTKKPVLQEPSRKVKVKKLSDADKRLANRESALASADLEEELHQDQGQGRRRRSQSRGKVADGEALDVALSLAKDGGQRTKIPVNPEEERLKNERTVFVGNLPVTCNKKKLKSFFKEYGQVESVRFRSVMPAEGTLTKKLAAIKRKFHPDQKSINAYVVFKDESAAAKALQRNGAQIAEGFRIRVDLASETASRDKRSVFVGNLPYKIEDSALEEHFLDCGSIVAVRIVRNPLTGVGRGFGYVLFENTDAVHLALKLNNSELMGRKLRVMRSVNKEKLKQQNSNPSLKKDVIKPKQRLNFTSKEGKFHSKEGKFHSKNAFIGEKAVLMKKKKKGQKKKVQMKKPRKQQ
Chain of Dlst (Q9D2G2 69-454 limits assumed): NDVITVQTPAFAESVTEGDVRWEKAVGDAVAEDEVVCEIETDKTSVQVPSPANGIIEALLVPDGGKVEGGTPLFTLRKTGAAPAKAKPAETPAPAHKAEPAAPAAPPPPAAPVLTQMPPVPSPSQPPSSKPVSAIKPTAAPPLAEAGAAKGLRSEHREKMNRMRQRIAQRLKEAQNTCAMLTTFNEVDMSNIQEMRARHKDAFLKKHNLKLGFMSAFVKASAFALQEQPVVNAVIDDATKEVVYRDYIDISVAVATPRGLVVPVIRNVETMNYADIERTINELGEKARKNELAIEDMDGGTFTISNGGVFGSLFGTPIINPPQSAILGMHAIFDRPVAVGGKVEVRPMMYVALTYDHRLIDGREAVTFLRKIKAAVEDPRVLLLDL
Chain of C1qc (Q02105 30-246 limits assumed): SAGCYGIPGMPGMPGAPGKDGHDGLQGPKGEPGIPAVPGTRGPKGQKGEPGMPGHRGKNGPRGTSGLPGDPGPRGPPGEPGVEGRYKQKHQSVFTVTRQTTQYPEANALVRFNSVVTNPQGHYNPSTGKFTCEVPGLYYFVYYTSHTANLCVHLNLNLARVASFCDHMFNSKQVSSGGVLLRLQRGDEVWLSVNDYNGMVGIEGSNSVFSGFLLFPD
Chain of Cacybp (Q9CXW3 2-229 limits assumed): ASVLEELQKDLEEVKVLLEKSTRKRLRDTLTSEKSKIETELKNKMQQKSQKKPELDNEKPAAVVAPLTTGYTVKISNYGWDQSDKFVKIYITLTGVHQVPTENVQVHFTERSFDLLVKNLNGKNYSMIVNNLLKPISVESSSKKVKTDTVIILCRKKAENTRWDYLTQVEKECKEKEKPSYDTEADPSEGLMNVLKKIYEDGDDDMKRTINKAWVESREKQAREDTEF
Chain of Orc5 (Q9WUV0 whole entry): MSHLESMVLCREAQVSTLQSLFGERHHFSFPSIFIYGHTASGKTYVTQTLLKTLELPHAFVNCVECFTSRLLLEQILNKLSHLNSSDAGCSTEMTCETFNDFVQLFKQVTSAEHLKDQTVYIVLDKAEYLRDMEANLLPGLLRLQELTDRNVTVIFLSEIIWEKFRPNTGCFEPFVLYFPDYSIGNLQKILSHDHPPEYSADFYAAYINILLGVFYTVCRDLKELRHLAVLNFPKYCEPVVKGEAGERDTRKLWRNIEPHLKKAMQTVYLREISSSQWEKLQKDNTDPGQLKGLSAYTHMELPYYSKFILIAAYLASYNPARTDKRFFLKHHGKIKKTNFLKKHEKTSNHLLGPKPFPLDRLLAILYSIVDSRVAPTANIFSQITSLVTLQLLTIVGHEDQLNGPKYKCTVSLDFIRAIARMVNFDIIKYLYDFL
Chain of Ppie (Q9QZH3 whole entry): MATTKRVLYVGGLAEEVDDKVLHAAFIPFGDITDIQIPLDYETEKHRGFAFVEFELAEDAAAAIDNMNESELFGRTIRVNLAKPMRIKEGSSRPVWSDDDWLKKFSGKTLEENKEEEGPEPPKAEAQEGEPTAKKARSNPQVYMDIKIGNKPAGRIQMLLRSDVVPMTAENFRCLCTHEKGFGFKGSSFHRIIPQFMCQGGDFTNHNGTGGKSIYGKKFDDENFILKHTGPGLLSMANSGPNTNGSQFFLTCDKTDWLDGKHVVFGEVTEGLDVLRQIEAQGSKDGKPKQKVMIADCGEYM
Chain of Rbm42 (Q91V81 2-478 limits assumed): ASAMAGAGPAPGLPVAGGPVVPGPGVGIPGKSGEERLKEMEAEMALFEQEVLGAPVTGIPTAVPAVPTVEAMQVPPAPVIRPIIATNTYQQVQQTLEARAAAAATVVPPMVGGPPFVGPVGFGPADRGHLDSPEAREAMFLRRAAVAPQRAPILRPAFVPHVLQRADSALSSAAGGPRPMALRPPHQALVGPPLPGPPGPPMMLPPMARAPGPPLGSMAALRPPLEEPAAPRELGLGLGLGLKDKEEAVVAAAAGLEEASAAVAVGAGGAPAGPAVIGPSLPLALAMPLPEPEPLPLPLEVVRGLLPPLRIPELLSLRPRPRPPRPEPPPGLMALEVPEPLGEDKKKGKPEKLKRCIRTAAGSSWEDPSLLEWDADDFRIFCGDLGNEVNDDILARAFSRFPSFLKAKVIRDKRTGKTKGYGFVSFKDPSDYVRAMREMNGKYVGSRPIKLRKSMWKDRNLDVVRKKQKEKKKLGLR
Chain of Pusl1 (A2ADA5 whole entry): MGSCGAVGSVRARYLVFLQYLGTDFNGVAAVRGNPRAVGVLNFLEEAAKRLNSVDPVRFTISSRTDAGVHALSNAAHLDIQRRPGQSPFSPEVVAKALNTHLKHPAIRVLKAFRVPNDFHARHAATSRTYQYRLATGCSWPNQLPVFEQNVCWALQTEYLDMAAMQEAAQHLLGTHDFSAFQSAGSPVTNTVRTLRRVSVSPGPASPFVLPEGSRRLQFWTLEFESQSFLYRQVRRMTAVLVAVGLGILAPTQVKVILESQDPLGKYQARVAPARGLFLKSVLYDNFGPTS

## Tox (from UniProt Q66JW3 1-526)
[1]
  Abundance: 2.65e-07
  MiST Score: 0.906
  Reproducibility: 0.714
  Specificity: 1
[2]
  Abundance: 4.9e-07
  MiST Score: 0.964
  Reproducibility: 0.901
  Specificity: 1
[3]
  Abundance: 9.15e-06
  MiST Score: 0.969
  Reproducibility: 0.919
  Specificity: 1
[4]
  Abundance: 0.000821
  MiST Score: 0.976
  Reproducibility: 0.943
  Specificity: 1
[5]
  Abundance: 2.3e-06
  MiST Score: 0.913
  Reproducibility: 0.953
  Specificity: 0.903
[6]
  Abundance: 1.49e-06
  MiST Score: 0.962
  Reproducibility: 0.897
  Specificity: 1
[7]
  Abundance: 2.13e-06
  MiST Score: 0.985
  Reproducibility: 0.971
  Specificity: 1
[8]
  Abundance: 5.46e-05
  MiST Score: 0.968
  Reproducibility: 0.916
  Specificity: 1
[9]
  Abundance: 4.54e-06
  MiST Score: 0.984
  Reproducibility: 0.966
  Specificity: 1
[10]
  Abundance: 6.59e-06
  MiST Score: 0.904
  Reproducibility: 0.709
  Specificity: 1
[11]
  Abundance: 0.00024
  MiST Score: 0.987
  Reproducibility: 0.977
  Specificity: 1
[12]
  Abundance: 1.28e-05
  MiST Score: 0.979
  Reproducibility: 0.953
  Specificity: 1
[13]
  Abundance: 8.26e-06
  MiST Score: 0.902
  Reproducibility: 0.836
  Specificity: 0.94
[14]
  Abundance: 4.13e-06
  MiST Score: 0.969
  Reproducibility: 0.919
  Specificity: 1
[15]
  Abundance: 6.62e-05
  MiST Score: 0.895
  Reproducibility: 0.729
  Specificity: 0.978
[16]
  Abundance: 1.98e-05
  MiST Score: 0.936
  Reproducibility: 0.812
  Specificity: 1
[17]
  Abundance: 8.43e-06
  MiST Score: 0.994
  Reproducibility: 0.999
  Specificity: 1
[18]
  Abundance: 1.08e-05
  MiST Score: 0.985
  Reproducibility: 0.971
  Specificity: 1
[19]
  Abundance: 3.8e-06
  MiST Score: 0.993
  Reproducibility: 0.998
  Specificity: 1
[20]
  Abundance: 7.11e-07
  MiST Score: 0.916
  Reproducibility: 0.862
  Specificity: 0.948
[21]
  Abundance: 0.00269
  MiST Score: 0.928
  Reproducibility: 0.855
  Specificity: 0.969
[22]
  Abundance: 7.52e-07
  MiST Score: 0.905
  Reproducibility: 0.71
  Specificity: 1
[23]
  Abundance: 0.000104
  MiST Score: 0.934
  Reproducibility: 0.941
  Specificity: 0.938
[24]
  Abundance: 4.09e-05
  MiST Score: 0.962
  Reproducibility: 0.895
  Specificity: 1
[25]
  Abundance: 2.82e-06
  MiST Score: 0.897
  Reproducibility: 0.686
  Specificity: 1
[26]
  Abundance: 3.38e-05
  MiST Score: 0.944
  Reproducibility: 0.837
  Specificity: 1
[27]
  Abundance: 1.19e-05
  MiST Score: 0.925
  Reproducibility: 0.776
  Specificity: 1
[28]
  Abundance: 4.26e-06
  MiST Score: 0.937
  Reproducibility: 0.815
  Specificity: 1
